Laboratory results: patent publication US20020055130A1, “Method and product for regulating apoptosis” (National Jewish Center for Immunology and Respiratory …, priority 1997, published 2002)

Molecular target: JNK kinase/SEK-1 (endogenous, Swiss 3T3 cells) (UniProt P47809)
Test: cell-based or functional assay

Chain of JNK kinase/SEK-1 (endogenous, Swiss 3T3 cells) (P47809 2-397 limits assumed): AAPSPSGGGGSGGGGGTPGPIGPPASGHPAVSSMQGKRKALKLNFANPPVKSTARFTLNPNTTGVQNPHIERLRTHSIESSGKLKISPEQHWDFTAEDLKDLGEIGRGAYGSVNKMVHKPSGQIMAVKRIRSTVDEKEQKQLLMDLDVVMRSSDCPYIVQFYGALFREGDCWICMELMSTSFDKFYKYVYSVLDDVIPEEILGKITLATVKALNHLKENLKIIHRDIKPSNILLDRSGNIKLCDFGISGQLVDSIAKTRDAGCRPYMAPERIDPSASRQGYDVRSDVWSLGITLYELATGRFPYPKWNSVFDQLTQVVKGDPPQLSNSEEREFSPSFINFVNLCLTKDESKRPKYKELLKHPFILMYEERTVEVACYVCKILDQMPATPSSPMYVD

inhibition of Gal4/Jun activation in response to MEKKCOOH (luciferase reporter, transient transfection): 65%
Substance: competitive inhibitory JNK/SAPK mutant JNK/SAPK(APF)
